{
  "source": "paper PMC6224480",
  "about": "“Insights into Kinesin-1 Activation from the Crystal Structure of KLC2 Bound to JIP3” (Structure(London, England:1993), 2018)",
  "conditions_in_all_cases": "both partners purified",
  "key": {"[1]": {"biological_target": "KLC2^TPR-myc third TPR1 mutant, printed as L220Y in Table S2 (mouse, UniProt O88448 191-480)", "sequence (O88448 other isoform, or with tags, fused parts or gaps L220Y)": "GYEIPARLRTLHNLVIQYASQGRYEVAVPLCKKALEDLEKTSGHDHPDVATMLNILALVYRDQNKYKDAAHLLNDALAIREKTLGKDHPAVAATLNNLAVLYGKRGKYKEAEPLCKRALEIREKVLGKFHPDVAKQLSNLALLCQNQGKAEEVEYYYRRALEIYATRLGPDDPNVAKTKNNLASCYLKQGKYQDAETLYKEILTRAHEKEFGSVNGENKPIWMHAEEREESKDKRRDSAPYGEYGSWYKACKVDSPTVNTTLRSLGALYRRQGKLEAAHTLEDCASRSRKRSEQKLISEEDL", "experiment": "ITC; FITC-CSTN-WD2 peptide as titrant (380 uM) into wild-type or mutant KLC2^TPR-myc (44-50 uM) in the cell; 25 C; 0.1 M NaCl, 25 mM HEPES, 1 mM TCEP, pH 7.5; 2-3 experiments globally fitted with the model A + B -> AB; apparent stoichiometry Napp"}, "KLC2^TPR-myc (wild type) [2]": {"biological_target": "T1, KLC2^TPR-myc (wild type) (murine, UniProt O88448 190-479)", "T1 construct": "kinesin light chain 2 (KLC2), murine, TPR domain, residues 191-480; also called KLC2^TPR-myc protein; source: E. coli BL21(DE3) Rosetta, purified (His-trap, ULP1 cleavage, SEC); not shown: His6-SUMO, N-terminal, cleaved", "T1 sequence (O88448 190-479)": "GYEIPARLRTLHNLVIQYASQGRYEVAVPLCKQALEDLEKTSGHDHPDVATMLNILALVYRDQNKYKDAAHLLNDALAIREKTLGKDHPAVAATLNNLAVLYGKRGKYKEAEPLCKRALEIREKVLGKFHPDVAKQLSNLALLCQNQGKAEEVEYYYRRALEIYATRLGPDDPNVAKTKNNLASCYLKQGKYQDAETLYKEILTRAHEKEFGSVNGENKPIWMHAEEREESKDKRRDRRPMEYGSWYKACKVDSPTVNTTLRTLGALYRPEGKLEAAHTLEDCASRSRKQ", "experiment": "fluorescence polarisation; FITC-LFP peptide (300 nM) with 2-fold dilutions of KLC2^TPR-myc; 0.1 M NaCl, 25 mM HEPES, 5 mM MgCl2, 1 mM TCEP, pH 7.5; 1 hour, room temperature; fluorescence anisotropy"}, "KLC2^TPR-myc (wild type) [3]": {"biological_target": "T1, KLC2^TPR-myc (wild type)", "experiment": "fluorescence polarisation; competition: FITC-LFP peptide (300 nM) and KLC2^TPR-myc fixed at 21 μM, 2-fold serial dilutions of unlabelled CSTN-WD1 peptide or Trp-JIP3^LZ; 0.1 M NaCl, 25 mM HEPES, 5 mM MgCl2, 1 mM TCEP, pH 7.5; competitive inhibition model"}, "KLC2^TPR-myc (wild type) [4]": {"biological_target": "T1, KLC2^TPR-myc (wild type)", "experiment": "ITC; wild-type or mutant KLC2^TPR-myc (44-50 μM) in the cell; Trp-JIP3^LZ (dimer 297-330 μM) or FITC-CSTN-WD2 peptide (380 μM) as titrant; 0.1 M NaCl, 25 mM HEPES, 1 mM TCEP, pH 7.5"}, "[5]": {"biological_target": "T2, KLC2^TPR-myc Thr^200Asp mutant (murine, UniProt O88448 190-479, Thr^200Asp)", "T2 construct": "kinesin light chain 2 (KLC2), murine, TPR domain, residues 191-480; source: E. coli BL21(DE3) Rosetta, purified (His-trap, ULP1 cleavage, SEC); not shown: His6-SUMO, N-terminal, cleaved", "T2 sequence (O88448 other isoform, or with tags, fused parts or gaps Thr^200Asp | Thr^200Asp | mutant)": "as the sequence (O88448 190-479) above, with T10D counted along it", "experiment": "ITC; wild-type or mutant KLC2^TPR-myc (44-50 μM) in the cell; Trp-JIP3^LZ (dimer 297-330 μM) or FITC-CSTN-WD2 peptide (380 μM) as titrant; 0.1 M NaCl, 25 mM HEPES, 1 mM TCEP, pH 7.5"}, "[6]": {"biological_target": "T3, KLC2^TPR-myc Tyr^208Ala mutant (murine, UniProt O88448 190-479, Tyr^208Ala)", "T3 construct": "kinesin light chain 2 (KLC2), murine, TPR domain, residues 191-480; source: E. coli BL21(DE3) Rosetta, purified (His-trap, ULP1 cleavage, SEC); not shown: His6-SUMO, N-terminal, cleaved", "T3 sequence (O88448 other isoform, or with tags, fused parts or gaps Tyr^208Ala | Tyr^208Ala | mutant)": "as the sequence (O88448 190-479) above, with Y18A counted along it", "experiment": "ITC; wild-type or mutant KLC2^TPR-myc (44-50 μM) in the cell; Trp-JIP3^LZ (dimer 297-330 μM) or FITC-CSTN-WD2 peptide (380 μM) as titrant; 0.1 M NaCl, 25 mM HEPES, 1 mM TCEP, pH 7.5"}, "[7]": {"biological_target": "T4, KLC2^TPR-myc Gln^223Lys mutant (murine, UniProt O88448 190-479, Gln^223Lys)", "T4 construct": "kinesin light chain 2 (KLC2), murine, TPR domain, residues 191-480; source: E. coli BL21(DE3) Rosetta, purified (His-trap, ULP1 cleavage, SEC); not shown: His6-SUMO, N-terminal, cleaved", "T4 sequence (O88448 other isoform, or with tags, fused parts or gaps Gln^223Lys | Gln^223Lys | mutant)": "as the sequence (O88448 190-479) above, with Q33K counted along it", "experiment": "ITC; wild-type or mutant KLC2^TPR-myc (44-50 μM) in the cell; Trp-JIP3^LZ (dimer 297-330 μM) or FITC-CSTN-WD2 peptide (380 μM) as titrant; 0.1 M NaCl, 25 mM HEPES, 1 mM TCEP, pH 7.5"}},
  "note": "*: point of attachment. FITC = O=C1OC2(c3ccc(O)cc3Oc3cc(O)ccc32)c2ccc(NC(=S)*)cc21",
  "data": [
    {"binder": "{FITC}-TRQLEWDDSTL-OH (tryptophan-acidic peptide (WD2 motif) derived from calsyntenin-1; also called FITC-CSTN-WD2 peptide; source: synthetic peptide; bought: Biomatik)", "values": [
      {"measurement": "Ka", "setting": "[1]", "value": 739000, "unit": "M⁻¹"},
      {"measurement": "stoichiometry N", "setting": "[1]", "value": 0.71}
    ]},
    {"binder": "{FITC}-DSLDDLFPNEDEQS-OH (LFP motif (KLC2 residues 167-169) of the acidic linker of kinesin light chain 2; also called FITC-LFP peptide; FITC-labelled LFP-motif peptide; source: synthetic peptide, bought: Biomatik)", "note": "[FITC-labeled KLC2 LFP motif peptide (FITC-DSLDDLFPNEDEQS-COOH)]", "values": [
      {"measurement": "Kd", "setting": "KLC2^TPR-myc (wild type) [2]", "value": 37, "unit": "µM"}
    ]},
    {"binder": "Ac-GKENEMDWDDSALTITVN-OH (tryptophan-acidic motif WD1 of calsyntenin-1; also called calsyntenin-1 peptide; tryptophan-acidic peptide; source: synthetic peptide (Peptide Synthesis Laboratory, Francis Crick Institute, UK))", "note": "[N-terminally acetylated CSTN-WD1 peptide (Ac-GKENEMDWDDSALTITVN-COOH)]", "values": [
      {"measurement": "Ki", "setting": "KLC2^TPR-myc (wild type) [3]", "value": 11.3, "unit": "µM"}
    ]},
    {"binder": "{FITC}-TRQLEWDDSTL-OH (tryptophan-acidic motif WD2 of calsyntenin-1; also called FITC-CSTN-WD2 peptide; tryptophan-acidic cargo peptide; source: synthetic peptide, bought: Biomatik)", "values": [
      {"measurement": "stoichiometry N", "setting": "KLC2^TPR-myc (wild type) [4]", "value": "~0.7"},
      {"measurement": "stoichiometry N", "setting": "[5]", "value": "~0.7"},
      {"measurement": "stoichiometry N", "setting": "[6]", "value": "~0.7"},
      {"measurement": "stoichiometry N", "setting": "[7]", "value": "~0.7"}
    ]}
  ]
}
